Results on one sequence are retold here after publication PMC7734321.

Common to all, as to test: MST
What all share (details): N6 of strand 1 = tetrahydrofuran (F, abasic site analog), opposite G; MST: 50 mM Tris-HCl pH 7.5, 50 mM KCl, 1 mM EDTA, 1 mM DTT, 7% glycerol, 25 C, 10 min, 0.5 uM DNA; authors call Kd values estimates only

Data set [1] concerns the target T1, Nei (endonuclease VIII) (Escherichia coli) (UniProt P50465).
T1 sequence: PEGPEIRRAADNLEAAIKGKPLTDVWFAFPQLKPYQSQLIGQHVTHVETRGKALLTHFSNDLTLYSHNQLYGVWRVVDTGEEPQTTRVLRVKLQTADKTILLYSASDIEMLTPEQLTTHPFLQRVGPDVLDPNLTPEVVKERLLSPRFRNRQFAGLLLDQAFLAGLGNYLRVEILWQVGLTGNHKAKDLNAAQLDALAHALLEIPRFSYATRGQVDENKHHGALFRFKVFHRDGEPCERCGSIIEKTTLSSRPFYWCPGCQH

The target in data set [2] is NEIL1 (endonuclease VIII-like 1) (Homo sapiens) (UniProt Q96FI4).
Data set [3] concerns the target T2, NTH1 (endonuclease III) (Homo sapiens) (UniProt P78549).
T2 sequence: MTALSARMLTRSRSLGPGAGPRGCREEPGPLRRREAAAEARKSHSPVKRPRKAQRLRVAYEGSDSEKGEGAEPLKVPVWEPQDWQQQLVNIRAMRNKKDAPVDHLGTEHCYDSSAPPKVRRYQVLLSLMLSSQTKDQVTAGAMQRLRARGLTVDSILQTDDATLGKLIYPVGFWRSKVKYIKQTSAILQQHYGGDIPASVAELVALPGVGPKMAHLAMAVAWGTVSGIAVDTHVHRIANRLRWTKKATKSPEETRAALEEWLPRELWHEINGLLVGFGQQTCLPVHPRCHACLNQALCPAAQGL

The target of data set [4] is T3, Fpg (formamidopyrimidine-DNA glycosylase) (Escherichia coli) (UniProt P05523).
T3 sequence: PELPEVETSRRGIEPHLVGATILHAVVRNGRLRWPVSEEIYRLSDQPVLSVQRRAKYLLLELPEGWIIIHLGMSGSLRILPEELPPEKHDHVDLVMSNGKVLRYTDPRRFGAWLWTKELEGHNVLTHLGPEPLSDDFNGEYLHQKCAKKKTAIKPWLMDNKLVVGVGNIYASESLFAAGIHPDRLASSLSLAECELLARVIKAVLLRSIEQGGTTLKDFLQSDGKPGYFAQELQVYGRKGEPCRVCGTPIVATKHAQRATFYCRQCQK

In data set [5] the target is OGG1 (8-oxoguanine-DNA glycosylase) (Homo sapiens) (UniProt O15527).
OGG1 (8-oxoguanine-DNA glycosylase) (Homo sapiens), sequence (O15527 whole entry): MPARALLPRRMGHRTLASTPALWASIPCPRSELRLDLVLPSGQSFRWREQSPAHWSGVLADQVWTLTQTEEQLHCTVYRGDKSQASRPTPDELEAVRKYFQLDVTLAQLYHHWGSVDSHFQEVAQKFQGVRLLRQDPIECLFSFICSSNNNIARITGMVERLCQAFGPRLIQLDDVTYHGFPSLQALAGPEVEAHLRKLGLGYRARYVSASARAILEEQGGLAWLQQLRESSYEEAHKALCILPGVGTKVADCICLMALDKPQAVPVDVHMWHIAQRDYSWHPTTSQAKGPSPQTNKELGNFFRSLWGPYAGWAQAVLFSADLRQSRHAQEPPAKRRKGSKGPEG

NEIL1 (endonuclease VIII-like 1) (Homo sapiens), sequence (Q96FI4 2-390): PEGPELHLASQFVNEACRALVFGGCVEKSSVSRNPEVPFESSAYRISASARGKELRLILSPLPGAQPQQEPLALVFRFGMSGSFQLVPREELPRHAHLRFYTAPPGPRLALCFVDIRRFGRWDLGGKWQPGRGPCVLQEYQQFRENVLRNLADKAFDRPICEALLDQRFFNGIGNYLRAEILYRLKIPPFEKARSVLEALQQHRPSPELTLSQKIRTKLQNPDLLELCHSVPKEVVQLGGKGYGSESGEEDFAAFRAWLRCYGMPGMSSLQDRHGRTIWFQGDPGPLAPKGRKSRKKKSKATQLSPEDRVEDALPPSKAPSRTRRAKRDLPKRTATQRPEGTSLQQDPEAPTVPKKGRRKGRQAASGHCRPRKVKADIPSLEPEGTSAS

Take “GCTCANGTACAGAGCTG / CAGCTCTGTACGTGAGC [F/G]”: the dissociation constant (Kd) (as a rule, the concentration at which binding is half-saturated) in data set [1] is 0.5 µM; in data set [2], 4.4 µM; in data set [3], 0.3 µM; in data set [4], 1.9 µM; in data set [5], 2.8 µM.
